Columns and labels:
eTau-4 peptide = target: T1, eTau-4 peptide; test: relative binding affinity, method not named (Table 4); sixth column, headed eTau 4
T1 construct: also called synthetic eTau4 polypeptide
T1 peptide: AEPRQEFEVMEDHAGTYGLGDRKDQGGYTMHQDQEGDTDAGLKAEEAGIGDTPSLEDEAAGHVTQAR

[1] = target: T2, 383 amino acid recombinant tau (UniProt P10636-6 1-383, biotinylated where printed as biotin-rTau383 (position not given)); test: Octet
T2 construct: also called rTau383

eTau 2 = target: T3, eTau 2; test: relative binding affinity, method not named (Table 4)
T3 construct: member of the group m9
T3 polypeptide: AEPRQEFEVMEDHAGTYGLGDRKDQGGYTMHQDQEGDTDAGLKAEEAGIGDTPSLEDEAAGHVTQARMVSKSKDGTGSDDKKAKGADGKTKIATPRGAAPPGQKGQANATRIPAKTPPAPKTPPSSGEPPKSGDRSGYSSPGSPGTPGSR

eTau 1b = target: T4, eTau 1b; test: as above
T4 construct: member of the group m9
T4 polypeptide: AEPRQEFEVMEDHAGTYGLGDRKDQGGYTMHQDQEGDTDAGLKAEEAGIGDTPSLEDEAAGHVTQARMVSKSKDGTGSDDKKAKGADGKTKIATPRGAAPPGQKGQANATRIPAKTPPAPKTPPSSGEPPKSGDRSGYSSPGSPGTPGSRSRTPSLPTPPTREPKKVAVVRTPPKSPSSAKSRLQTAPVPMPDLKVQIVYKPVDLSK

[2] = target: eTau1a (amino acids 2-166 of fetal tau) (Homo sapiens (Human), UniProt P10636 2-541); test: as above
[3] = target: T2, 383 amino acid recombinant tau; test: as above
[4] = target: eTau 4 (FIG. 17); test: relative binding affinity, method not named (Table 4); fifth column, headed eTau 4

T2 sequence (P10636 other isoform, or with tags, fused parts or gaps limits assumed): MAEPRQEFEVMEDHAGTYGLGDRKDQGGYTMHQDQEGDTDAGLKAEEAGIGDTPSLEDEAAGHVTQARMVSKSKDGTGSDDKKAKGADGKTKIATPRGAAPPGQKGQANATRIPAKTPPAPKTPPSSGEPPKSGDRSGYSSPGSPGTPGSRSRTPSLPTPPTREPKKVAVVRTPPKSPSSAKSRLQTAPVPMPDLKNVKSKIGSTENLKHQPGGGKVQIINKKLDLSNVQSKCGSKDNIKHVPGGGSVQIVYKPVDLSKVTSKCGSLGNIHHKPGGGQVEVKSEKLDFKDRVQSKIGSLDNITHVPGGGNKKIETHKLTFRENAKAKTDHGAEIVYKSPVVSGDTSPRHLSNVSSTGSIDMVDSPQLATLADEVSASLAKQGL

B1: VH3/Vk2 (antibody, V domains shown)
VH: EVQLVESGGALVKPGGSLRLSCAASGFSFSKYGMSWVRQAPGKGLEWVATISSSGSRTYYPDSVKGRFTISRDNAKNTLYLQMNSLRAEDTAMYYCSISWDGAMDYWGQGTTVTVSS
VL: DVVMTQSPLSLPVTLGQPASISCKSSQSIVHSNGNTYLEWYLQKPGQSPQLLVYKVSNRFSGVPDRFSGSGSGTDFTLKISRVEAEDVGTYYCFQGSLVPWAFGGGTKVEIK
notes: member of the group m7; also called humanized IPN002 variant VH3/Vk2
- Kd (eTau-4 peptide): 0.701 nM
- Kd [1]: 0.577 nM
- koff [1]: 0.000107 s⁻¹
- kon [1]: 185000 M⁻¹ s⁻¹
- Kd (eTau 2): 0.408 nM
- Kd (eTau 1b): 0.614 nM
- Kd [2]: 0.282 nM
- Kd [3]: 0.258 nM
- Kd [4]: 0.589 nM

B2: VH3/Vk3 (antibody, V domains shown)
VH: EVQLVESGGALVKPGGSLRLSCAASGFSFSKYGMSWVRQAPGKGLEWVATISSSGSRTYYPDSVKGRFTISRDNAKNTLYLQMNSLRAEDTAMYYCSISWDGAMDYWGQGTTVTVSS
VL: DVVMTQSPLSLPVTLGQPASISCKSSQSIVHSNGNTYLEWYLQKPGQSPQLLVYKVSNRFSGVPDRFSGSGSGTDFTLKISRVEAEDVGVYYCFQGSLVPWAFGGGTKVEIK
notes: member of the group m7; also called humanized IPN002 variant VH3/Vk3
- Kd (eTau-4 peptide): 0.665 nM
- Kd [1]: 0.169 nM
- koff [1]: 3.15e-05 s⁻¹
- kon [1]: 187000 M⁻¹ s⁻¹
- Kd (eTau 2): 0.471 nM
- Kd (eTau 1b): 0.689 nM
- Kd [2]: 0.22 nM
- Kd [3]: 0.224 nM
- Kd [4]: 0.469 nM

B3: VH3/Vk4 (antibody, V domains shown)
VH: EVQLVESGGALVKPGGSLRLSCAASGFSFSKYGMSWVRQAPGKGLEWVATISSSGSRTYYPDSVKGRFTISRDNAKNTLYLQMNSLRAEDTAMYYCSISWDGAMDYWGQGTTVTVSS
VL: DVVMTQSPLSLPVTLGQPASISCKSSQSIVHSNGNTYLEWYLQKPGQSPQLLIYKVSNRFSGVPDRFSGSGSGTDFTLKISRVEAEDVGVYYCFQGSLVPWAFGGGTKVEIK
notes: member of the group m7; also called humanized IPN002 variant VH3/Vk4
- Kd (eTau-4 peptide): 0.586 nM
- Kd [1]: 0.475 nM
- koff [1]: 0.0001 s⁻¹
- kon [1]: 211000 M⁻¹ s⁻¹
- Kd (eTau 2): 0.447 nM
- Kd (eTau 1b): 0.382 nM
- Kd [2]: 0.216 nM
- Kd [3]: 0.255 nM
- Kd [4]: 0.381 nM

B4: VH4/Vk1 (antibody, V domains shown)
VH: EVQLVESGGALVKPGGSLRLSCAASGFSFSKYGMSWVRQAPGKGLEWVATISSSGSRTYYPDSVKGRFTISRDNAKNTLYLQMNSLRAEDTAMYYCAISWDGAMDYWGQGTTVTVSS
VL: DVLMTQSPLSLPVTLGQPASISCKSSQSIVHSNGNTYLEWYLQKPGQSPQLLVYKVSNRFSGVPDRFSGSGSGTDFTLKISRVEAEDVGTYYCFQGSLVPWAFGGGTKVEIK
notes: member of the group m7; also called humanized IPN002 variant VH4/Vk1
- Kd (eTau-4 peptide): 0.498 nM
- Kd [1]: 2.12 nM
- koff [1]: 0.000297 s⁻¹
- kon [1]: 140000 M⁻¹ s⁻¹
- Kd (eTau 2): 0.405 nM
- Kd (eTau 1b): 0.359 nM
- Kd [2]: 0.198 nM
- Kd [3]: 0.187 nM
- Kd [4]: 0.28 nM

B5: VH4/Vk2 (antibody, V domains shown)
VH: EVQLVESGGALVKPGGSLRLSCAASGFSFSKYGMSWVRQAPGKGLEWVATISSSGSRTYYPDSVKGRFTISRDNAKNTLYLQMNSLRAEDTAMYYCAISWDGAMDYWGQGTTVTVSS
VL: DVVMTQSPLSLPVTLGQPASISCKSSQSIVHSNGNTYLEWYLQKPGQSPQLLVYKVSNRFSGVPDRFSGSGSGTDFTLKISRVEAEDVGTYYCFQGSLVPWAFGGGTKVEIK
notes: member of the group m7; also called humanized IPN002 variant VH4/Vk2
- Kd (eTau-4 peptide): 0.467 nM
- Kd [1]: 1.88 nM
- koff [1]: 0.000307 s⁻¹
- kon [1]: 163000 M⁻¹ s⁻¹
- Kd (eTau 2): 0.451 nM
- Kd (eTau 1b): 0.483 nM
- Kd [2]: 0.191 nM
- Kd [3]: 0.16 nM
- Kd [4]: 0.291 nM

B6: humanized IPN002 variant VH2/Vk1 (antibody, V domains shown)
VH: EVHLVESGGALVKPGGSLRLSCAASGFSFSKYGMSWVRQAPGKGLEWVATISSSGSRTYYPDSVKGRFTISRDNAKNTLYLQMNSLRAEDTAMYYCSISWDGAMDYWGQGTTVTVSS
VL: DVLMTQSPLSLPVTLGQPASISCKSSQSIVHSNGNTYLEWYLQKPGQSPQLLVYKVSNRFSGVPDRFSGSGSGTDFTLKISRVEAEDVGTYYCFQGSLVPWAFGGGTKVEIK
- Kd (eTau-4 peptide): 0.321 nM
- Kd (eTau 2): 0.225 nM
- Kd (eTau 1b): 0.215 nM
- Kd [2]: 0.281 nM
- Kd [3]: 0.242 nM
- Kd [4]: 0.369 nM

B7: IPN002 (antibody, V domains shown)
VH: EVHLVESGGALVKPGGSLKLSCAASGFSFSKYGMSWVRQTPDKRLEWVATISSSGSRTYYPDSVKGQFTISRDNAKNTLYLQMSSLKSEDTAMYYCSISWDGAMDYWGQGTSVTVSS
VL: DVLMTQTPLSLPVSLGDQASISCKSSQSIVHSNGNTYLEWYLQKPGQSPKLLVYKVSNRFSGVPDRFSGSGSGTDFTLKISRVEAEDLGTYYCFQGSLVPWAFGGGTKLEIK
notes: It is the murine parental antibody; also called IPN2; IPN-2
- Kd [1]: 0.206 nM
- koff [1]: 4.78e-05 s⁻¹
- kon [1]: 233000 M⁻¹ s⁻¹

From US20160122421A1 (IPIERIAN, published 2016)
